# Like-named read-outs stand apart in the source and are kept apart here.
# Assays:
# [1] = biological target: T1, ERα DB domain (DNA-binding domain) (human, UniProt P03372 176-250); assay: ITC
# [2] = biological target: T1, ERα DB domain (DNA-binding domain); assay: ITC; remark: listed apart in the source
# SEC-MALS = biological target: the molecule itself; assay: SEC-MALS
Binder,Kd [1] [nM],Kd [2] [nM],stoichiometry N (SEC-MALS)
ERE duplex (dsDNA) DNA 1: CCCAGGTCACAGTGACCTGCG DNA 2: CGCAGGTCACTGTGACCTGGG,81 ± 2,68 ± 8,
"DB domain of ERα pre-treated with EDTA to strip divalent zinc ions (metal-free DB domain) (domain or fragment, human, UniProt P03372 176-250, looked up) MESAKETRYCAVCNDYASGYHYGVWSCEGCKAFFKRSIQGHNDYMCPATNQCTIDKNRRKSCQACRLRKCYEVGM",,,2
"DB domain of ERα reconstituted with divalent ions of cadmium (domain or fragment, human, UniProt P03372 176-250, looked up) MESAKETRYCAVCNDYASGYHYGVWSCEGCKAFFKRSIQGHNDYMCPATNQCTIDKNRRKSCQACRLRKCYEVGM",,,2
"DB domain of ERα reconstituted with divalent ions of cobalt (domain or fragment, human, UniProt P03372 176-250, looked up) MESAKETRYCAVCNDYASGYHYGVWSCEGCKAFFKRSIQGHNDYMCPATNQCTIDKNRRKSCQACRLRKCYEVGM",,,2
"DB domain of ERα reconstituted with divalent ions of mercury (domain or fragment, human, UniProt P03372 176-250, looked up) MESAKETRYCAVCNDYASGYHYGVWSCEGCKAFFKRSIQGHNDYMCPATNQCTIDKNRRKSCQACRLRKCYEVGM",,,2
"DB domain of ERα reconstituted with divalent ions of zinc (domain or fragment, human, UniProt P03372 176-250, looked up) MESAKETRYCAVCNDYASGYHYGVWSCEGCKAFFKRSIQGHNDYMCPATNQCTIDKNRRKSCQACRLRKCYEVGM",,,2
